What all share (assay type): biochemical
The nature of series [1]: HTP-analysis of supernatants pretreated with acid (MUGal hydrolysis). The following applies: challenge at pH 4.2; activity of the variant/activity of WT GLA (SEQ ID NO: 5); yeast supernatant. The gist of the method: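 Supernatants from INVSc1 yeast secreting GLA variants were challenged at 37° C. for 1-3 h in McIlvaine buffer at pH 3.3-4.3. Residual activity was then measured on 4 mM MUGal substrate stock at pH 4.8 with citrate buffer pH 4.3, over 30-180 min at 37° C. Reactions were quenched with sodium carbonate and read by fluorescence (Ex 355/Em 448 nm).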

A short description of series [2]: HTP-analysis of supernatants pretreated with base (MUGal hydrolysis). As to conditions: challenge at pH 7.1; activity of the variant/activity of WT GLA (SEQ ID NO: 5); yeast supernatant. The gist of the method: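 Fluorescence of released 4-MU (Ex 355 nm, Em 448 nm) after carbonate quench reports MUGal hydrolysis by GLA variants secreted from INVSc1 yeast. Before the acidic (pH 4.3-4.8) 30-180 min reaction at 37° C, supernatants had been pre-incubated at pH 7.0-9.7 for 1-18 h at 37° C.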

Series [3] is described as follows: HTP-analysis of yeast culture supernatants, no challenge (MUGal hydrolysis). The following applies: activity of the variant/activity of WT GLA (SEQ ID NO: 5), yeast supernatant. The method in brief:
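GLA variants expressed in yeast INVSc1, secreted into SD-Ura broth over 66-84 h at 30° C; clarified supernatants tested without challenge. Supernatant mixed with McIlvaine buffer pH 4.8 and 2 mM MUGal (citrate/KCl, pH 4.6), 37° C for 30-180 min, carbonate-quenched, fluorescence Ex 355/Em 448 nm.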

The results in this text go back to patent publication US11278600B2, “Human alpha-galactosidase variants” (Codexis, Inc., priority 2014, dated 2022).

Substitutions are numbered along the chain they refer to.

B1: 171 (protein)
chain: LDNGLARTPTMGWLHWERFMCNLDCQEEPDSCISEKLFMEMAELMVSEGWKDAGYEYLCIDDCWMAPQRDSEGRLQADPQRFPHGIRQLANYVHSKGLKLGIYADVGNKTCAGFPGSFGYYDIDAQTFADWGVDLLKFDGCYCDSLENLADGYKHMSLALNRTGRSIVYSCEWPLYMWPFQKPNYTEIRQYCNHWRNFADIDDSWKSIKSILDWTSFNQERIVDVAGPGGWNDPDMLVIGNFGLSWNQQVTQMALWAIMAAPLFMSNDLRHISPQAKALLQDKDVIAINQDPLGKQGYQLRQGDNFEVWERPLSGLAWAVAMINRQEIGGPRSYTIAVASLGKGVACNPACFITQLLPVKRKLGFYEWTSRLRSHINPTGTVLLQLENTMQMGKDLLL
modifications: Synthetic Polypeptide sequence of Variant No. 171 of mature Human GLA
Regarding B1, the “Relative Activity of GLA Variants After Challenge at pH 4.2” value (shortened to “Relative Activity … at pH 4.2”) in series [1] was “++ (++ = >1.5 to 2.5 relative activity over WT GLA (SEQ ID NO: 5))”. The “Relative Activity of GLA Variants After Challenge at pH 7.1” value (from here on “Relative Activity … at pH 7.1”) in series [2] was “++ (++ = >1.5 to 2.5 relative activity over WT GLA (SEQ ID NO: 5))”. Further, the “Relative Activity of GLA Variants After No Challenge (NC)” value in series [3] is “++ (++ = >1.5 to 2.5 relative activity over WT GLA (SEQ ID NO: 5))”.

B2: 176 (protein)
chain: B1 chain with S47T, G393S
modifications: Synthetic Polypeptide sequence of Variant No. 176 of mature Human GLA
Take B2: the “Relative Activity … at pH 4.2” value in series [1] is recorded as “+ (+ = 0.5 to 1.5 relative activity over WT GLA (SEQ ID NO: 5))”. Besides, the “Relative Activity … at pH 7.1” value in series [2] is “+ (+ = 0.5 to 1.5 relative activity over WT GLA (SEQ ID NO: 5))”. The “Relative Activity of GLA Variants After No Challenge (NC)” value in series [3] is “+ (+ = 0.5 to 1.5 relative activity over WT GLA (SEQ ID NO: 5))”.

B3: 175 (protein)
chain: B1 chain with S47R, G393S
modifications: Synthetic Polypeptide sequence of Variant No. 175 of mature Human GLA
B3: the “Relative Activity … at pH 4.2” value in series [1] is “++ (++ = >1.5 to 2.5 relative activity over WT GLA (SEQ ID NO: 5))”. For the same molecule, the “Relative Activity … at pH 7.1” value in series [2] was “+ (+ = 0.5 to 1.5 relative activity over WT GLA (SEQ ID NO: 5))”. The “Relative Activity of GLA Variants After No Challenge (NC)” value in series [3] is given as “+ (+ = 0.5 to 1.5 relative activity over WT GLA (SEQ ID NO: 5))”.

B4: 172 (protein)
chain: B1 chain with G393H
modifications: Synthetic Polypeptide sequence of Variant No. 172 of mature Human GLA
With B4, in series [1], the “Relative Activity … at pH 4.2” value was “+ (+ = 0.5 to 1.5 relative activity over WT GLA (SEQ ID NO: 5))”. Also, the “Relative Activity … at pH 7.1” value in series [2] is recorded as “+ (+ = 0.5 to 1.5 relative activity over WT GLA (SEQ ID NO: 5))”. For the same molecule, the “Relative Activity of GLA Variants After No Challenge (NC)” value in series [3] is given as “+ (+ = 0.5 to 1.5 relative activity over WT GLA (SEQ ID NO: 5))”.

B5: 173 (protein)
chain: B1 chain with G393P
modifications: Synthetic Polypeptide sequence of Variant No. 173 of mature Human GLA
On to B5, for which the “Relative Activity … at pH 4.2” value in series [1] was “++ (++ = >1.5 to 2.5 relative activity over WT GLA (SEQ ID NO: 5))”. Further, the “Relative Activity … at pH 7.1” value in series [2] is given as “++ (++ = >1.5 to 2.5 relative activity over WT GLA (SEQ ID NO: 5))”. Further, in series [3], the “Relative Activity of GLA Variants After No Challenge (NC)” value is listed as “++ (++ = >1.5 to 2.5 relative activity over WT GLA (SEQ ID NO: 5))”.

B6: 174 (protein)
chain: B1 chain with S47I, G393S
modifications: Synthetic Polypeptide sequence of Variant No. 174 of mature Human GLA
For B6, in series [1], the “Relative Activity … at pH 4.2” value is “+ (+ = 0.5 to 1.5 relative activity over WT GLA (SEQ ID NO: 5))”. The “Relative Activity … at pH 7.1” value in series [2] is “+ (+ = 0.5 to 1.5 relative activity over WT GLA (SEQ ID NO: 5))”. Moreover, the “Relative Activity of GLA Variants After No Challenge (NC)” value in series [3] was “+ (+ = 0.5 to 1.5 relative activity over WT GLA (SEQ ID NO: 5))”.
